Data: publication PMC6908751 (Cell host & microbe, 2019)

Target: Sh2 N9 NA ectodomain plus stalk with His6-tag (tetramer) (influenza A virus A/Shanghai/02/2013 …)
Test: cryo-EM structure

| Binder | stoichiometry N | binding result |
| --- | --- | --- |
| human anti-N9 antibody NA-22 Fab (Fab, V domains shown) VH: QVQLVESGGGVVQPGRSLRLSCAASGFTFNNYGMHWVRQAPGKGLEWVAVISYDGSNKYYADSVKGRFTISRDNSKNTLYLQMNSLRAEDTAVYYCAKDKRFITMILVGPFDYWGQGTLVTVSS VL: QSVLTQPASVSGSPGQSITISCTGTSSDVGGYNYVSWHQQHPGKAPKLMIYDVSNRPSGVSNRFSGSKSGNTASLTISGLQTEDEADYYCSSYTSSTTNVFGTGTKVTVL | 4 Fabs per NA tetramer | – |
| human anti-N9 antibody NA-63 Fab (Fab, V domains shown) VH: EVQLVESGGGLVQPGGSLRLSCAASGFTFSSYWMSWVRQAPGKGLDWVANIKQDGSEKYYVDSVKGRFTISRHNAKNSLYLQMNSLRAEDTAVYYCASSTAAEFFDYWGQGTLVTVSS VL: DIVMTQSPSSLSASVGDRVTITCRASQSISTYLNWYQQKPGKAPKLLIYAASSLQGGVPSRFSGSGSGTDFTLTISSLQPEDFATYYCQQSYSTPLYTFGQGTKLEIK | – | binds |
| human anti-N9 antibody NA-73 Fab (Fab, V domains shown) VH: QVQLEESGPGLVKPSETLSLTCTVSGYTISSGYYWGWIRQPPGKGLEWIGCNNHRGSSYYNPSLKSRVIISVDTTKNKFSLKLSSVTAADTAVYYCARDPSFWSSTSRTSPYYYGMDVWGQGTLVTVSS VL: not shown | 1 Fab per NA protomer | – |
| human anti-N9 antibody NA-80 Fab (Fab, V domains shown) VH: QVQLVQSGAEVKRPGASVKVSCKASGYTFISYGISWVRQAPGQGLEWMGWISAYNGNTNYAQNLQGRVTMTTDTSTSTAYMELRSLRSDDTAVYYCARVIPGTAVDYFDYWGQGTLVTVSS VL: DIVMTQSPSSLSASVGDRVTISCRASQSISSYLNWYQQKPGKAPKLLIYAASSLQSGVPSRFSGSASGTDFTLTISSLQPEDFATYYCQQSYSAPFTFGPGTKVDIE | 1 Fab per NA protomer | – |
